From article PMC10418980, “Synthesis and Evaluation of ^177Lu-DOTA-PD-L1-i and ^225Ac-HEHA-PD-L1-i as Potential Radiopharmaceuticals for Tumor Microenvironment-Targeted Radiotherapy” (International Journal of Molecular Sciences, 2023)

What was measured:
[1] = Serum stability by radio-HPLC; type: in vitro ADME, human
Method: (§1) The radiochemical purity of the radioconjugates was determined by reversed-phase HPLC (Waters) with radiometric and UV-vis detectors. The analysis was carried out with a Discovery C18 column (particle size: 5 µm, length: 25 cm, diameter: 4.6 mm). A linear gradient (rate flow: 1 mL/min) of CH3CN-0.1% TFA (B)/H2O-0.1%TFA (A), from 100% to 10% of A in 30 min, was used. For ^225Ac-HEHA-PD-L1-i, fractions of 1.0 mL were collected, and the activity was evaluated in a NaI(Tl) detector (Auto In-v-tron 4010; NML Inc., Houston, TX, USA).
(§2) The ^225Ac-HEHA-PD-L1-i and ^177Lu-DOTA-PD-L1-i stability was evaluated in the medium they were obtained after labeling (water/ascorbic acid/sodium acetate) at 0.33, 3, 24, 48, and 72 h with radio-HPLC, as previously described. The conjugate solutions were diluted in human serum (5x) for stability assessment. The conjugates (n = 3) were incubated at 37 °C, and samples were taken at 0.33, 3, 24, 48, and 72 h.

[2] = system: mice intravenously injected with HCC827 lung cancer cells (PD-L1+); assay: Biodistribution and biokinetic models in mice with HCC827 lung micrometastases; type: in vivo, Nu/Nu mice
Method: (§3) Under an approved protocol (No. 07-2018-2021), all animal procedures followed the ethical regulations for handling laboratory animals (NOM-062-ZOO-1999) and the Institutional Animal Care and Use Committee requirements. Male Nu/Nu (UPEAL, […], I.PN., Mexico City, Mexico) mice aged 6–8 weeks were maintained in a pathogen-free barrier facility. Mice were injected with 3.7 MBq (50 µL) of ^177Lu DOTA-PD-L1-I or 3.7 kBq (50 µL) of ^225Ac-HEHA-PD-L1-i in the tail vein and sacrificed at 0.5, 1, 3, 24, 72, and 96 h (n = 3). The heart, lungs, liver, pancreas, spleen, kidneys, small intestine, brain, and stomach were dissected to be measured in a NaI(Tl) radioactivity detector. The results are expressed as the percentage of injected dose (%ID) per organ. Blood samples were also extracted, and the activity was recorded as %ID/g. A second group of mice was inoculated intravenously with 1 × 10^6 HCC827 cells. The animals were treated with 3.7 MBq (50 µL) of ^177Lu DOTA-PD-L1-i (n = 3) or 3.7 kBq (50 µL) of ^225Ac-HEHA-PD-L1-i (n = 3) via tail vein injection on day five post-tumor cell inoculation. The animals were dissected as described above. In the case of ^177Lu DOTA-PD-L1-i, radioisotopic/X-ray in vivo/ex vivo images were obtained in a Preclinical Imaging System (Bruker, XTREME). For in vivo imaging, mice were anesthetized with oxygen and 2% isoflurane.
The %ID values were used to obtain the biokinetic models ( qht ). The Ah(t) functions were obtained by decay-correcting the biokinetic models, that is, by adding to the biological constant (λB ) the radioactive constant (λR ), as follows (Equation (1)):(1) At=Be^−(λR+λB)t+Ce^−(λR+λB)t+De^−(λR+λB)t

[3] = system: kidney and liver tissues from mice; assay: Histopathological assessment (H&E); type: in vivo
Method: Healthy lungs, kidneys, liver, and lungs from mice injected i.v. with HCC827 cells were fixed with 4% paraformaldehyde for 24 h at room temperature, embedded in paraffin, and sectioned in 4–5 µm thick sections using a microtome. Paraffin sections of lung samples were deparaffinized in xylene and rehydrated in a series of graded alcohols. Dewaxed tissue sections were stained with hematoxylin and eosin (H&E). The sections were assessed using a light microscope (magnification of 100x) (Zeiss; Mod. Axioscope: Oberkochen, Germany). Images were acquired with a digital camera (5 MP high-speed color; AmScope; Mod.Mu500: Irvine, CA, USA).

[4] = system: mice inoculated with HCC827 lung cancer cells; assay: Creatinine and liver enzyme levels; type: in vivo
Method: Mouse blood samples collected at 96 h after radiopharmaceutical administration were used for the determination of alanine aminotransferase (ALT), creatinine, and aspartate aminotransferase (AST). Creatinine was measured titrimetrically. The picrate method was used. AST and ALT were quantified using a Roche Diagnostics kit for UV assays.

[5] = Stability in labeling medium (water/ascorbic acid/sodium acetate) by radio-HPLC; type: physicochemical; settings: injectable-grade water/ascorbic acid/sodium acetate; 72 h after labeling (225Ac-HEHA: 72 h after purification); reversed-phase C18 radio-HPLC (225Ac: 1 mL fractions counted in NaI(Tl) detector)
Method: as §1, §2

[6] = system: HCC827 human lung cancer cells (PD-L1 positive) vs C6 mouse glioma cells (PD-L1 negative); assay: Cellular uptake assay; type: cell-based; settings: 1 × 10^5 cells/tube in PBS pH 7, 37 °C, 1 h; 177Lu 4 kBq, 225Ac 0.04 kBq; NaI(Tl) counting; n = 6 / n = 3 (method)
Method: HCC827 human lung cancer (PD-L1 positive) and C6 mouse glioma (PD-L1 negative) cell lines were cultured in RPMI-1640 medium with penicillin and streptomycin (100 µg/mL) and fetal bovine serum (15%) in 5% CO2 at 37 °C. Cells diluted in PBS (pH 7) (1 × 10^5 cells/tube) received two different treatments: (a) ^177Lu-DOTA-PD-L1-i (4 kBq) (n = 3) and (b) ^225Ac-HEHA-PD-L1-i (0.04 kBq) (n = 3). Cells were incubated with each treatment at 37 °C for 1 h. After incubation, tubes were measured in a NaI(Tl) detector to determine the initial activity (100%). The tubes were centrifuged at 500× g for 10 min. Then, a mixture of acetic acid/0.5 M NaCl was added, and the centrifugation was repeated. The liquid was removed, and the button activity was measured, corresponding to the percentage of activity captured by the cells regarding the initial activity.

[7] = system: HCC827 cells; assay: Cell viability assay (flow cytometry, Muse Count & Viability Kit); type: cell-based, human; settings: 5 h
Method: The effect of ^177Lu DOTA-PD-L1-i, ^225Ac-HEHA-PD-L1-i, and PD-L1-i on HCC827 cell viability (5 × 10^4) was determined by flow cytometry with the Muse® Count & Viability Kit from Luminex, DiaSorin, USA. Before taking readings with the Muse Cell Analyzer (Merck Millipore, Burlington, MA, USA) previously calibrated with the Muse® System Check kit, the baseline detection was established using a fresh sample of untreated cells that served to delimit the size and granularity of the cell line, as well as the basal viability of the population. Also, the reading window for dead cells was established using an aliquot of the same population treated with 0.5% Triton-X100. Once the detection window for the HCC827 cells was established to discriminate between live and dead cells, 50 µL (2 × 10^4 cells/200 µL) were taken from the cell suspension that had been treated with cold ligand (PD-L1-i, 0.1 µg), with 1.4 MBq of ^177Lu DOTA-PD-L1-i or 0.37 kBq of ^225Ac-HEHA-PD-L1-i for 5 h and then mixed with 450 µL of the viability reagent; after 5 min incubation at room temperature and in the dark, the samples were read in triplicate. For the calculation of the radiation absorbed dose to cell nuclei, the total number of nuclear transformations (N) normalized to the unit of administered activity (Bq^.s/Bq) was obtained with the A(t) mathematical integration (from t = 0 to t = 5 h). […]

[8] = system: healthy mice; assay: Biodistribution in healthy mice; type: in vivo, Nu/Nu mice; settings: tail vein, 3.7 MBq 177Lu or 3.7 kBq 225Ac, 0.5-96 h, n = 3
Method: as §3

[9] = system: lungs of athymic mice with or without HCC827 lung micrometastases; assay: Radioisotopic/X-ray imaging; type: in vivo
Method: as §3

[10] = lungs invaded with HCC827 cancer cells
[11] = ex vivo lungs, radioisotopic imaging

CCCC[C@H]1C(=O)N(C)[C@@H](CCCC)C(=O)N[C@@H](CCCNC(=S)Nc2ccc(CC3CN(CC(=O)O)CCN(CC(=O)O)CCN(CC(=O)O)CCN(CC(=O)O)CCN(CC(=O)O)CCN3CC(=O)O)cc2)C(=O)N[C@H](C(=O)NCC(N)=O)CSCC(=O)N[C@@H](Cc2ccc(O)cc2)C(=O)N(C)[C@@H](C)C(=O)N[C@@H](CC(N)=O)C(=O)N2CCC[C@H]2C(=O)N[C@@H](Cc2c[nH]cn2)C(=O)N[C@@H](CC(C)C)C(=O)N2C[C@H](O)C[C@H]2C(=O)N[C@@H](Cc2c[nH]c3ccccc23)C(=O)N[C@@H](CO)C(=O)N[C@@H](Cc2cn(C)c3ccccc23)C(=O)N1C (stereo partly shown) [^225Ac-HEHA-PD-L1-i, metal not drawn]
radiochemical purity after 72 h in human serum [1]: 64 ± 4% | rate of decrease of radiochemical purity in human serum [1]: approximately 0.388 %/h | Ac-225 activity present in bone ([2]; mouse, in vivo): 0.3 ± 0.2 % ID/g | biokinetic model A(t), kidney ([2]; mouse, in vivo): 12.60e^-3.65t + 8.14e^-2.54t | biokinetic model A(t), liver ([2]; mouse, in vivo): 25.3e^-1.90t + 17.4e^-0.01t | biokinetic model A(t), lung (HCC827 cancer cells) ([2]; mouse, in vivo): 11.20e^-0.002t + 1.73e^-1.20t | half-life, kidney, second component ([2]; mouse, in vivo): 0.27 h | injected dose in kidney eliminated with half-life 0.19 h ([2]; mouse, in vivo): 12.6 % of the injected dose | injected dose in kidney eliminated with half-life 0.27 h ([2]; mouse, in vivo): 8.14 % of the injected dose | injected dose retained in liver and eliminated with the slow half-life ([2]; mouse, in vivo): 17.4 % of the injected dose | half-life, kidney, fast phase ([2]; mouse, in vivo, iv): 0.19 h | half-life, liver, slow phase ([2]; mouse, in vivo, iv): 69.3 h | uptake in lung micrometastases ([2]; mouse, in vivo, iv): > 30 % ID | histological staining (H&E) of liver and kidney ([3]; mouse, in vivo): no pathologic changes in the liver and kidney | effect on the function of liver and kidney ([4]; mouse, in vivo): No significant cytotoxic effect

CCCC[C@H]1C(=O)N(C)[C@@H](CCCC)C(=O)N[C@@H](CCCNC(=S)Nc2ccc(C[C@H]3CN(CC(=O)O)CCN(CC(=O)O)CCN(CC(=O)O)CCN3CC(=O)O)cc2)C(=O)N[C@H](C(=O)NCC(N)=O)CSCC(=O)N[C@@H](Cc2ccc(O)cc2)C(=O)N(C)[C@@H](C)C(=O)N[C@@H](CC(N)=O)C(=O)N2CCC[C@H]2C(=O)N[C@@H](Cc2c[nH]cn2)C(=O)N[C@@H](CC(C)C)C(=O)N2C[C@H](O)C[C@H]2C(=O)N[C@@H](Cc2c[nH]c3ccccc23)C(=O)N[C@@H](CO)C(=O)N[C@@H](Cc2cn(C)c3ccccc23)C(=O)N1C [^177Lu-DOTA-PD-L1-i, metal not drawn]
radiochemical purity after 72 h in water [5]: greater than 97.5 ± 0.5% | remaining at 72 h ([1]; diluted in human serum (5x), 37 °C, 72 h, reversed-phase C18 radio-HPLC, n = 3, read-out: radiochemical purity after 72 h in human serum): > 97.5% | uptake in HCC827 cells relative to C6 cells [6]: approximately fourteen | net decrease in alive cells regarding the control group (representative histogram) ([7]; 177Lu 15 Gy, 225Ac 5 Gy): 30% | net decrease viability ([7]; 177Lu-DOTA-PD-L1-i 15 Gy (1.4 MBq/20,000 cells), 225Ac-HEHA-PD-L1-i 5 Gy (0.37 kBq/20,000 cells), PD-L1-i 0.1 µg/20,000 cells, read in triplicate): 31.42 ± 2.01% | biodistribution profile in healthy mice [8]: rapid blood clearance with renal and hepatobiliary elimination and no accumulation in normal tissues | λ, kidney, fast phase ([2]; kidneys, biokinetic model): 3.65 | λ, kidney, slow elimination slope ([2]; kidneys, biokinetic model): 0.009 | half-life, kidney, slow elimination slope ([2]; kidneys, t1/2 = ln2/λ): 77 h | half-life, kidney, fast phase ([2]; kidneys, t1/2 = ln2/λ, 177Lu 3.7 MBq, 225Ac 3.7 kBq i.v.): 0.19 h | λ, liver, fast phase ([2]; liver, biokinetic model): 1.23 | λ, liver, slow phase ([2]; liver, biokinetic model): 0.01 | fraction of activity taken up in the liver cleared rapidly ([2]; liver, fast phase (hepatobiliary elimination), 3.7 MBq i.v.): seventy-four | fraction of activity taken up in the liver cleared slowly ([2]; liver, slow phase): twenty-six | half-life, liver, fast phase ([2]; liver, t1/2 = ln2/λ): 0.56 h | half-life, liver, slow phase ([2]; liver, t1/2 = ln2/λ, 177Lu 3.7 MBq, 225Ac 3.7 kBq i.v.): 69 h | fraction of lung uptake activity with the long half-life [2, 10]: Ninety | fraction of lung uptake activity with the short half-life [2, 10]: ten | half-life, lung, long component [2, 10]: 346.5 h | half-life, lung, short component [2, 10]: 17.3 h | lung uptake pattern, average number of emitted photons per normalized area, mice in which metastases were not induced [9, 11]: 78 ± 32 photons/cm^2 | lung uptake pattern, average number of emitted photons per normalized area, mice with metastatic HCC827 cells [9, 11]: 298 ± 82 photons/cm^2 | tissue accumulation in radioisotopic images ([9]; in vivo and ex vivo, athymic mice with lung micrometastases, 30 min, 24 and 72 h): the only tissue that accumulated the radiotracer was the lung invaded by HCC827 cancer cells | histological staining (H&E) of liver and kidney ([3]; mice exposed to the radiopharmaceuticals): no pathologic changes in the liver and kidney | Creatinine ([4]; 96 h after 3.7 MBq 177Lu or 3.7 kBq 225Ac, day 5 after i.v. HCC827 inoculation, mean ± SD, n = 3, control 0.198 ± 0.057): 0.199 ± 0.062 mg/dL | Alanine Aminotransferase (ALT) ([4]; 96 h after 3.7 MBq 177Lu or 3.7 kBq 225Ac, day 5 after i.v. HCC827 inoculation, mean ± SD, n = 3, control 71 ± 7): 68 ± 4 IU/L | Aspartate Aminotransferase (AST) ([4]; 96 h after 3.7 MBq 177Lu or 3.7 kBq 225Ac, day 5 after i.v. HCC827 inoculation, mean ± SD, n = 3, control 150 ± 13): 143 ± 14 IU/L | effect on the function of liver and kidney ([4]; ALT, creatinine, AST vs control group (Table A1)): No significant cytotoxic effect
